# From patent US20240317834A1, “COMPOSITIONS AND METHODS FOR NEUROLOGICAL DISEASES” (CODA BIOTHERAPEUTICS, INC., priority 2020, published 2024)
# Experiments:
# Type in all cases: cell-based
# HEK293T cells = test: High throughput electrophysiology (IonFlux automated patch clamp), EC50 of engineered receptors to ligands
# Description: To confirm the EC50s determined by plate reader as well as develop a better understanding of maximum current flow, the engineered receptors were subjected to high throughput electrophysiology system, as described below. For HEK293T studies, cDNAs encoding ion channels were cloned into pcDNA3.1 using standard recombination techniques. HEK293T cells from Clontech (Lenti-X™ 293T Cell Line) were cultured in DMEM supplemented with 10% FBS and 1% Pen/Strep to 40-50% confluence using standard cell culture protocols, transfected with ion channel plasmids at a concentration of 18 μg per 15 cm dish using Fugene 6, and grown for an additional 24 hours. Cells were then assayed on an electrophysiological system (IonFluxHT and/or Mercury, Fluxion Biosciences) in which dose-response relationships may be assessed through a microfluidics-based platform for establishing whole cell configurations. Ensemble plates were primed with extracellular buffer (140 mM NaCl, 5 mM KCl, 2 mM CaCl2), 1 mM MgCl2, 10 mM HEPES, and 10 mM glucose, pH 7.2 with NaOH, mOsm 310), intracellular buffer (145 mM CsCl, 2 mM CaCl2), 2 mM MgCl2, 10 mM HEPES, and 10 mM EGTA, pH 7.2 with CsOH, mOsm 305), as adapted from Lynagh and Lynch, and test compounds (stocks prepared fresh) diluted in extracellular buffer. Cells were then released from the plate with Accutase, centrifuged, resuspended in extracellular buffer, and loaded into Ensemble plates. Cells were then subjected to a standard protocol for priming, trapping, breaking, and establishing whole cell configuration, with cells held at −60 mV throughout the recording. After recording baseline, progressive doses of test compounds were applied using the IonFlux software to assess dose response relationships. Data were then analyzed off-line using custom Python scripts to convert data to .csv format, re-plot traces, and apply QC measurements to reject unstable recordings (i.e. thresholding based on access resistance and/or standard deviation in baseline, as well as artifact rejection). Peak currents were then calculated, and population data were fit using a 4-parameter logistic equation as described by the Hill Equation. Currents were measured on an automated patch clamp system (Fluxion Biosciences) following 1 second addition of drug and the EC50 values calculated are tabulated below in Table 22 below and Table 21 above (in Example 2).
# rat DRG neurons [1] = test: Whole cell manual patch clamp electrophysiology, ligand-induced currents and EC50 in rat DRG neurons
# Description: Using whole cell manual patch clamp electrophysiology in HEK293 cells, rat DRG neurons and rat hippocampal neurons, the EC50 of the various engineered receptors disclosed herein to Ach and non-native ligands was measured using the Hill equation with peak current measurements from escalating doses of ligand. The rheobase shift was also measured in rat DRG neurons, which reflects the efficacy of the receptors. To calculate the rheobase, first, the amount of current that can produce an action potential was determined. Then the ligand was added, followed by a step wise increase in the current injected up to 700 pA.
# For manual patch clamp experiments, Cells plated on coverslips were visualized at 10× and 40× on an inverted fluorescence microscope (Olympus). Recordings were made with an Axopatch 200B amplifier and Digidata 1550B (Molecular Devices) at RT using 3-6 MOhm glass patch electrodes (Sutter, BF150-86-10). Unless otherwise stated, recordings were made in extracellular solution (ECS) containing: 140 mM sodium chloride, 4 mM potassium chloride, 1 mM magnesium chloride, 2 mM calcium chloride, 10 mM HEPES, and 10 mM D-(+)-glucose (pH=7.3 with sodium hydroxide, osmolarity=305−315 mOsm). An 8-line reservoir (AutoMate Scientific) in combination with an 8-channel zero-dead-volume perfusion pencil (AutoMate Scientific) was used for perfusion. Data was acquired using pClamp software (Molecular Devices). Traces were either analyzed in Clampfit (Molecular Devices) or using custom Python code. Plotting and statistics were performed in GraphPad Prism.
# For dose-response, ligand-induced currents were recorded in voltage clamp mode. For HEK cell experiments, recordings took place in the normal ECS with a cesium-based internal solution containing: 140 mM cesium chloride, 5 mM potassium fluoride, 2 mM Calcium chloride, 2 mM magnesium chloride, 10 mM HEPES, and 10 mM EGTA (pH=7.2 with cesium hydroxide, osmolarity=290-295 mOsm). […]
# rat DRG neurons [2] = test: Rheobase shift and evoked action potentials in rat DRG neurons (current clamp)
# In short: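 Rat DRG neurons expressing engineered receptors, whole-cell current clamp at RT. ECS at pH 7.3; K-gluconate internal at pH 7.2. 500 ms steps from −200 to 700 pA with and without ligand. Rheobase taken as the smallest depolarising step that fires an action potential; input resistance from negative steps.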
molecule,measurement,setting,value
"CODA806: engineered chimeric LGIC receptor, Y115D, L131Q in SEQ ID NO: 33 (protein, synthetic sequence of chimeric LGIC) MRCSPGGVWLALAASLLHVSLQGEFQRKLYKELVKNYNPLERPVANDSQPLTVYFSLSLLQIMDVDEKNQVLTTNIWLQMSWTDHYLQWNVSEYPGVKTVRFPDGQIWKPDILLDNSADERFDATFHTNVQVNSSGHCQYLPPGIFKSSCPMDLKNFPMDVQTCKLKFGSWSYGGWSLDLQMQEADISGYIPNGEWDLVGIPGKRSERFYECCKEPYPDVTFTVTMRRRMGYYLIQMYIPSLLIVILSWISFWINMDAAPARVGLGITTVLTMTTQSSGSRASLPKVSYVKAIDIWMAVCLLFVFSALLEYAAVNFVSRQHKELLRFRRKRRHHKSPMLNLFQEDEAGEGRFNFSAYGMGPACLQAKDGISVKGANNSNTTNPPPAPSKSPEEMRKLFIQRAKKIDKISRIGFPMAFLIFNMFYWIIYKIVRREDVHNQ",fold increased potency towards RG-3487 compared with wild type receptor,HEK293T cells; ligand RG-3487,over 10 fold
same,fold reduced potency to acetylcholine compared with wild type receptor,HEK293T cells; ligand acetylcholine,over 500 fold
same,chloride current on application of RG-3487 (SA-2),"rat DRG neurons [1]; cultured adult rat DRG neurons expressing the receptor, not observed in non-transduced cells",generated chloride current in a dose dependent manner
same,sensitivity to RG-3487 compared with wildtype nAchRa7 receptor,rat DRG neurons [1]; cultured rat DRG sensory neurons,way more sensitive
same,sensitivity to acetylcholine,"rat DRG neurons [1]; cultured rat DRG sensory neurons, compared with wildtype nAchRa7 receptor",essentially insensitive
same,"Rheobase Shift; Rat DRG Neurons, Baseline","rat DRG neurons [2]; Baseline, no ligand",163 ± 28 pA
same,"Rheobase Shift; Rat DRG Neurons, Facinicline/RG-3487 @ EC90",rat DRG neurons [2]; Facinicline/RG-3487 @ EC90,625 ± 35 pA
same,effect on current injection evoked action potentials,"rat DRG neurons [2]; RG-3487 (SA-2) 3 μM, transduced rat DRG neurons",reversibly inhibits
same,increase in the current required to elicit action potentials (rheobase),"rat DRG neurons [2]; RG-3487 (SA-2) 3 μM, transduced rat DRG neurons, n=7",~3 ×
same,effect on evoked action potentials,"rat DRG neurons [2]; acetylcholine 3.0 mM, transduced rat DRG neurons, n=4",no effect
